Biological target: human mutant SOD1 G93A (Cu/Zn superoxide dismutase) (human)
Assay: SEC

- stoichiometry N: 2
Substance: human mutant SOD1 G93A (Cu/Zn superoxide dismutase) (natural protein)

— article PMC3711648
